Data: patent US20260055194A1 (LYCIA THERAPEUTICS, published 2026)
Numbering of substitutions follows the chain as printed. Where two headings read alike, the source gives them in different places.

B1: 06D12 (antibody, V domains shown)
VH: QVQLQQSGAELMKPGASVKLSCKATGYTFTGYWIEWVKQRPGHGLEWIGEILPGSGSTNYNEKFKGKATFTADTSSNTAYMQLSSLTTEDSAIYYCAYTVVATDWYFDVWGTGTTVTVSS
VL: ENVLTQSPAIMSASLGEKVTMSCRASSSVNYMYWYQQKSDASPKLWIYYTSNLAPGVPARFSGSGSGNSYSLTISSMEGEDAATYYCQQFTSSPWTFGGGTKLEIK
notes: also called Clone # 10
B2: 06D1 (antibody, V domains shown)
VH: EVQLQQSGAELVRPGASVKLSCTASGFNIKDDYMHWVKQRPEQGLEWIGWIDPENGDTEYASKFQGKATITADTSSNTAYLQLSSLTSEDTAVYYCTTVAPGYYAMDYWGQGTSVTVSS
VL: ENVLTQSPAIMSASPGEKVTMTCRASSSVSSSYLHWYQQKSGASPKLWIYSTSNLASGVPARFSGSGSGTSYSLTISSVEAEDAATYYCQQYSGFTFGSGTKLEIK
notes: also called Clone # 11
B3: 06H10 (antibody, V domains shown)
VH: B2 VH with G102Y
VL: QIVLTQSPAIMSASLGEEITLTCSASSSVSYMHWYQQKSGTSPKLLIYSTSNLASGVPSRFSGSGSGTFYSLTISSVEAEDAADYYCHQWSSYHTFGGGTKLEIK
B4: 12D5 (antibody, V domains shown)
VH: QVQLQQPGAELVKPGASVKLSCKASGYTFTNYWMHWVKQRPGQGLEWIGMIHPNSGSTNYNEKFKSKATLTVDKSSSTAYMQLSSLTSEDSAVYYCARPHGYPFGYWGQGTTLTVSS
VL: B1 VL with W95Y
notes: also called Clone # 26
B5: 43C8 (antibody, V domains shown)
VH: EIQLQQSGPELVKPGASVKMSCKASGYTFTDYVISWVKQRTGQGLEWIGEIYPGSHTYYNEKFKGKATLTADKSSNTAYMQLSSLTSEDSAVYFCALTAGAMDYWGQGTSVTVSS
VL: NIMMTQSPSSLAVSAGEKVTMSCKSSQSVLYSSNQKNYLAWYQQKPGQSPKLLIYWASTRESGVPDRFTGSGSGTDFTLTISSVHAEDLAVYYCHQYLSSYTFGGGTKLEIK
notes: also called Clone # 28
B6: 53B11 (antibody, V domains shown)
VH: EVQLQQSGPELVKPGTSMKISCKASGYSFTDYTVNWVKQSHGKNLEWIGLINPYNGGTSYNQKFKGKATLTVDKSSSTAYMELLSLTSEDSAVYYCARWGYYYATSYYFAMDYWGQGTSVTVSS
VL: DIQMNQSPSSLSASLGDTITITCHASQNINVWLSWYQQKPGNIPKLLIYKASNLHTGVPSRFSGSGSGTGFTLTISSLQPEDIATYYCQQGQSYPWTFGGGTKLEIK
notes: also called Clone # 33
B7: 45A12 (antibody, V domains shown)
VH: QVQLQQSGAELMKPGASVKISCKATGYTFSTYWIEWVKQRPGHGLEWIGEILPGSGSTNYNEKFKGKATFTADASSNTAYMQLSSLTSEDSAVYYCARDGGAMDYWGQGTSVTVSS
VL: B5 VL with S28R, S83T, H85Q, A86P, Y101R
notes: also called Clone # 36
B8: 18G4 (antibody, V domains shown)
VH: EVKLMESGGGLVQPGASLRLSCAASGFTFTDYYMSWVRQPPGKAPEWLALIRNKANGYTTEYNASVKGRFTISRDNSQNILYLQMNTLRTEDSATYYCVRGGFAYWGQGTLVTVSA
VL: QAVVIQESALTTSPGETVTLTCRSSTGAVTTSHYAIWVQEKPDHLFTGLIGGTNNRVPGVPARFSGSLIADKAALTITGAQTEDEAIYFCALWYTNQFIFGSGTKVTVL
notes: also called Clone # 45
B9: 17F11 (antibody, V domains shown)
VH: EVQLQQSGPELVKPGASVKMSCKASGYTFTDYNMHWVKQSHGKSLEWIGYINPNNGGTNYNQKFQGKATLTVNKSSRTAYMELRSLTSEDSAVYYCVRFYYGSRYYAMDYWGQGTSVTVSS
VL: DIVMTQSPATLSVTPGDRVSLSCRASQSISDYLHWYQQKSHESPRLLIKYASQSISGIPSRFSGSGSGSDFTLSINSVEPEDVGVYYCQNGHSFPYTFGGGTKLEIK
notes: also called Clone # 55
B10: 06F1 (antibody, V domains shown)
VH: EVQLQQSGAELVRPGASVKLSCTASGFNIKDDYMHWVKQRPEQGLEWIGWIDPENGDTEYASKFQGKATITADTSSNTAYLQLSSLTSEDTAVYYCTNYYGSSPFDYWGQGTTLTVSS
VL: QIVLTQSPAIMSAFLGERVTMTCTASSSVSSRYLHWYQQKPGSSPKLWIYSTSNLASGVPARFSGSGSGTSYSLTISSMEAEDAATYYCHQYHRSPLTFGAGTKLELK
notes: also called Clone # 67
B11: 11B12 (antibody, V domains shown)
VH: QVQLQQSGPELVKPGASVKISCKASGYSFTSYYIHWVKQRPGQGLEWIGWIYPGSGNTKYNEKFKGKATLTADTSSSTAYMQLSSLTSEDSAVYYCARGNWHWYFDVWGTGTTVTVSS
VL: EIVLTQSPALMAASPGEKVTITCSVSSSISSSNLHWYQQKSETSPKPWIYGTSNLASGVPVRFSGSGSGTSYSLTISSMEAEDAATYYCQQWSSYPLTFGAGTKLELK
notes: also called Clone # 75
B12: 21D5 (antibody, V domains shown)
VH: QVQLKQSGPGLVQPSQSLSITCTVSGFSLTRYGVHWVRQSPGKGLEWLGVIWRGGSTDYNAAFMSRLSITKDNSKSQVFFKMNSLQADDTAIYYCAKEGTGILDSWGQGTTLTVSS
VL: DIVLTQSPASLAVSLGQRATISCRASKSVSTSGYSYMHWYQQKPGQPPTLLIYLASNLESGVPARFSGSGSGTDFTLNIHPVEEEDAATYYCQHSRELPYTFGGGTKLEIK
notes: also called Clone # 78
B13: 08D8 (antibody, V domains shown)
VH: QVQLQQPGAELVKPGASVKLSCKASGYTFTSYWMQWVKQRPGQGLEWIGEIDPSDSYTNYNQKFKGKATLTVDTSSSTAYMQLSSLTSEDSAVYYCARGDYYGSSSWFAYWGQGTLVTVSA
VL: DIVMTQAAPSVPVTPGESVSISCRSSKSLLHSNGNTYLYWFLQRPGQSPQLLIYRMSNLASGVPDRFSGSGSGTAFTLRISRVEAEDVGVYYCMQHLEYPFTFGAGTKLELK
notes: also called Clone # 84
B14: 03C7 (antibody, V domains shown)
VH: QVQLQQSGPELVKPGASVKISCKASGYSFTSYYIHWVKQRPGQGLEWIGWIYPGSGNTKYNEKFKGKATLTADTSSSTAYMQLSSLTSEDSAVYYCARMGSSYWYFDVWGTGTTVTVSS
VL: ENVLTQSPAIMAASLGQKVTMTCSASSSVSSSYLHWYQQKSGASPKPLIHRTSNLASGVPARFSGSGSGTSYSLTISSVEAEDDATYYCQQWSGYPLTFGAGTKLELK
notes: also called Clone # 85
B15: 16H4 (antibody, V domains shown)
VH: QVQLKQSGPGLVQPSQSLSITCTASGFSLTSYGVHWVRQSPGKGLEWLGVIWSGGSTDYSAAFISRLSISKDSSKSQVFFKMNSLQADDTAIYYCARNLPITSYDPSSFYAMDYWGQGTSVTVSS
VL: DIQMTQTTSSLSASLGDRVTISCSASQGISNYLNWYQQKPDGTVKLLIYYTSSLHSGVPSRFSGSGSGTDYSLTISNLEPEDIATYYCQQYSKLPFTFGSGTKLEIK
notes: also called Clone # 95

Experiments:
[1] = target: T1, Recombinant human M6PR ECD-His (human, UniProt P11717 41-2304); test: Octet BLI; mIgG from hybridoma supernatant on anti-mouse biosensor, His-tagged human M6PR analyte
T1 construct: extracellular domain; also called recombinant His-tagged human M6PR; human M6PR antigen; not shown: His tag

[2] = target: human CI-M6PR on K562 cells (human, UniProt P11717 41-2491); test: cell-based or functional assay
[3] = target: T2, purified recombinant CI-M6PR (domains 1-9) protein (human, UniProt P11717 41-1365, limits assumed); test: BLI (GatorPrime), antibody on anti-mouse IgG Fc sensor, CI-M6PR (domains 1-9) in solution, global 1:1 fit;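 further: human CI-M6PR tested at a range of concentrations against captured antibodies, measured at 30 °C, analyte diluted in PBS carrying Tween-20, BSA and NaN3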
T2 construct: domain: domains 1-9; also called human CI-M6PR; wild-type human CI-M6PR

[4] = target: T2, purified recombinant CI-M6PR (domains …); test: ELISA on human M6PR, Abs 450nm, antibody about 0.0005-1 ug/mL
[5] = target: T2, purified recombinant CI-M6PR (domains …); test: as above; remark: listed apart in the source
[6] = target: T2, purified recombinant CI-M6PR (domains …); test: as above; remark: listed apart in the source
[7] = target: T2, purified recombinant CI-M6PR (domains …); test: as above; remark: listed apart in the source
[8] = target: T2, purified recombinant CI-M6PR (domains …); test: as above; remark: listed apart in the source
[9] = target: T2, purified recombinant CI-M6PR (domains …); test: as above; remark: listed apart in the source
[10] = target: T2, purified recombinant CI-M6PR (domains …); test: as above; remark: listed apart in the source

Row | Binder | Kd [1] [nM] | Uptake pHrodo (MFI) [2] [MFI] | Kd [3] [nM] | koff [3] [s⁻¹] | kon [3] [M⁻¹ s⁻¹] | EC50 (read off the curve) [4] [µg/mL] | EC50 (read off the curve) [5] [µg/mL] | EC50 (read off the curve) [6] [µg/mL] | EC50 (read off the curve) [7] [µg/mL] | EC50 (read off the curve) [8] [µg/mL] | EC50 (read off the curve) [9] [µg/mL] | EC50 (read off the curve) [10] [µg/mL]
1 | B1 | 9.56 | 47000 | – | – | – | – | – | – | – | – | – | –
2 | B2 | 17.1 | 22400 | 45.1 | 0.0111 | 245000 | ~0.01 | – | – | – | – | – | –
3 | B3 | – | 65800 | – | – | – | – | – | – | – | – | – | –
4 | B4 | 12.2 | 35800 | 184 | 0.0123 | 66700 | – | ~0.01 | – | – | – | – | –
5 | B5 | 5.27 | 30800 | 6.33 | 0.00104 | 164000 | – | – | ~0.02 | – | – | – | –
6 | B6 | 2.59 | 9700 | 3.44 | 0.000445 | 129000 | – | – | – | – | – | – | –
7 | B7 | 30 | 36000 | 108 | 0.00872 | 81000 | – | – | – | ~0.01 | – | – | –
8 | B8 | 8.74 | 10400 | 13 | 0.000616 | 47200 | – | – | – | – | ~0.01 | – | –
9 | B9 | 10.5 | 12500 | 10 | 0.000454 | 45300 | – | – | – | – | – | ~0.01 | –
10 | B10 | 17.3 | 34200 | – | – | – | – | – | – | – | – | – | –
11 | B11 | 90.6 | 43000 | 237 | 0.0112 | 47400 | – | – | – | – | – | – | –
12 | B12 | 43.1 | 9980 | 62.2 | 0.000789 | 12700 | – | – | – | ~0.02 | – | – | –
13 | B13 | 259 | 10900 | 351 | 0.00185 | 5250 | – | – | – | – | – | – | –
14 | B14 | 17.5 | 41700 | 24.9 | 0.0154 | 618000 | – | – | – | – | – | – | ~0.01
15 | B15 | 615 | 13400 | – | – | – | – | – | – | – | – | – | –
